Here are results for 1 molecule from article PMC12234435, “Monoclonal antibody neutralizes Staphylococcus aureus serine protease-like protein B (SplB)-induced pathology” (Infection and Immunity, 2025).

The target in experiment [1] is T1, native SplB in the extracellular proteins of S. aureus D29 (Staphylococcus aureus D29 (USA300 …, UniProt Q2FFT0, strain)).
T1 construct: serine protease-like protein B (SplB), secreted by S. aureus D29, a community-acquired USA300 derivative (CC8); no identifier printed for this strain's SplB; Denatured, separated by SDS-PAGE and blotted; also called SplB in the ECP preparation
The experiment in a line: Western blot; 5 µg extracellular proteins of S. aureus NCTC 8325-4 and D29 denatured, SDS-PAGE, blotted on PVDF; α-SplB1 300 ng/mL overnight at 4°C as primary antibody. The note with it: one partner purified. On the technique in general: Immunoblotting shows a protein as a band on a membrane.

Experiment [2] addresses T2, recombinant tag-free Staphylococcus aureus serine protease-like protein B (SplB) (Staphylococcus aureus (strain NCTC 8325 …, UniProt Q2FXC3)). Nature of the experiment: cell-based or functional assay.
Experiment [3] deals with T2, recombinant tag-free Staphylococcus …. The experiment in a line: MST; RED-NHS-labelled tag-free SplB (40 nM) constant, α-SplB1 serially diluted from 3.42 µM to 0.209 nM; MST buffer with 0.05% Tween-20; RT; Monolith NT.115, 100% excitation power, 40% MST power. The conditions noted are these: both partners purified.
The target in experiment [4] is T3, recombinant tag-free Staphylococcus aureus serine protease-like protein F (SplF) (Staphylococcus aureus (strain NCTC 8325 …, UniProt Q2FXC8)).
T3 construct: serine protease-like protein F (SplF) of Staphylococcus aureus, tag-free
The experiment in a line: ELISA; indirect ELISA for cross-reactivity with recombinant tag-free SplA, SplD, SplE and SplF. The conditions noted are these: both partners purified. For orientation: An ELISA detects its analyte on a solid surface through an enzyme-linked reagent.

For experiment [5], the target named is T4, recombinant tag-free Staphylococcus aureus serine protease-like protein A (SplA) (Staphylococcus aureus NCTC 8325 (strain …, UniProt Q2FXC2)).
T4 construct: serine protease-like protein A (SplA) of Staphylococcus aureus, tag-free
The experiment is described as above. The conditions noted are these: both partners purified.

Experiment [6] deals with T5, recombinant tag-free Staphylococcus aureus serine protease-like protein E (SplE) (Staphylococcus aureus (strain NCTC 8325 …, UniProt Q2FXC7)).
T5 construct: serine protease-like protein E (SplE) of Staphylococcus aureus, tag-free
The description is as above. The note with it: both partners purified.

Experiment [7] concerns the target T6, recombinant tag-free Staphylococcus aureus serine protease-like protein D (SplD) (Staphylococcus aureus (strain NCTC 8325 …, UniProt Q2FXC5)).
T6 construct: serine protease-like protein D (SplD) of Staphylococcus aureus, tag-free
The description is as above. The note with it: both partners purified.

B1: murine anti-SplB monoclonal antibody α-SplB1 (antibody, V domains shown)
VH: EVQLQESGPGILQSSQTLSLTCSFSGFSLNSVGMGVTWIRQPSGKGLEWLAHIYWDDDKLYNSSLKSRLTISKDTSRNQVFLNITSVVSADTATYYCARRVYGISYDYWYFDVWGTGTAVTVSS
VL: DILMTQSPATLSVTPGDRVSLSCRASQSISDYLHWYQQKSHESPRLLIKYASQSISGIPSRFSGSGSGSDFTLSINSVEPEDVGVYYCQNGHIFPPTFGAGTKLELK
notes: variable region of the heavy chain; mouse IgG1 heavy chain constant region (isotyping: IgG1 subclass); variable region of the light chain; mouse kappa light chain constant region (isotyping: κ light chains); IgG1, kappa; Raised against SplB-Strep; also called α-SplB1 mAb; anti-SplB mAb; source: hybridoma supernatant (C57BL/6N splenocytes fused with P3X63Ag8.653), purified (Protein-G-Sepharose)
As usually defined, the Kd is the constant that tells how readily two partners part at equilibrium. With B1, the binding result in experiment [1] is given as “binds”; in experiment [4], “no binding”; in experiment [5] it was “no binding”; in experiment [6] it was “no binding”; in experiment [7], “no binding”. For the same molecule, the “neutralisation of the cleavage of the synthetic substrate Ac-VEID-MCA by 2.5 µM tag-free SplB, pre-incubated with α-SplB1 at molar ratios 1:1 to 1:8 (SplB:α-SplB1), 37°C, 1 h” value in experiment [2] was 66 % neutralised (at 1:1 molar ratio; complete at 1:2). For the same molecule, the Kd in experiment [3] was found to be 37.9 nM.
